In patent US20210230599, “STEM-LOOP COMPOSITIONS AND METHODS FOR INHIBITING INTERLEUKIN-8” (VITRISA THERAPEUTICS, INC., published 2021):

Assays:
[1] = molecular target: T1, Interleukin-8 (IL8, CXCL8), C-terminal His-tagged (Homo sapiens, UniProt P10145 SEQ:1-72); assay: competition; competition TR-FRET; settings: tags: C-terminal His (Sino Biological); stem-loop
[2] = molecular target: T1, Interleukin-8 (IL8, CXCL8), C-terminal …; assay: inhibition; inhibition of IL8 binding to CXCR1 cells, protein limited; neutrophil migration 3 nM; settings: tags: C-terminal His (Sino Biological); stem-loop
Protocol: CXCR1 overexpressing cells were used to confirm that aptamers could block IL8 binding to its cognate receptor, CXCR1, in a functional setting. Briefly, CXCR1-overexpressing cells were plated in a 96 well plate and seeded overnight. Serially diluted aptamers and 5 nM IL8 were mixed in cell culture media and applied to cells for 2 hours at 37° C. Media was aspirated, and cells were washed 3× with PBS for 5 minutes. Cells were lysed in Ultra HiBlock Buffer (Perkin Elmer) with gentle agitation. IL8 levels were determined using Ultra TR-FRET (Perkin Elmer).

[3] = molecular target: T1, Interleukin-8 (IL8, CXCL8), C-terminal …; assay: cell_activity; neutrophil migration, 3 nM IL8, protein limited; settings: tags: C-terminal His (Sino Biological); stem-loop
Protocol: (§1) Freshly isolated primary human neutrophil migration stimulated by IL8 was measured using a transwell assay. Neutrophils were isolated from fresh whole human blood using Polymorphprep™ (AXIS Shield) and then were re-suspended in assay buffer (RPMI+0.1% Human Serum Albumin) at 10\hat{ }6 cells/mL. 5 μm Transwell inserts (Corning) were activated with […] in the plate and 100 µL of assay buffer in the transwell at 37° C. 3 nM IL8 and aptamers or controls were incubated for 1 hour, then 200 µL of the aptamer/IL8 mix was added to each well and 100 μL of neutrophils was added to the transwell. Aptamer inhibition was tested at two concentrations: 10 nM and 100 nM. After 45 minutes at 37° C., 100 μL from each well was transferred to a white 96-well plate with 50 μL of lysis buffer. The number of cells that migrated from the transwell to the well was quantified by ATPLITE® Luminescence Assay System (Perkin Elmer). In Table 13, values are normalized to 3 nM IL8 treatment and average between replicates with standard deviation. 3 nM IL8 activity inhibited by at least 50% at 10 nM aptamer concentration is consistent with aptamers having IC₅₀ values of 10 nM or better, as observed for Aptamer 3 and Aptamer 8.
The neutrophil migration assay described in Example 6 was used to further characterize optimized variants of Aptamer 3. […]

[4] = molecular target: T1, Interleukin-8 (IL8, CXCL8), C-terminal …; assay: TR-FRET; bead flow 19 nM; settings: tags: C-terminal 6xHis (Sino Biological); label: Alexa Fluor 647
Protocol: (§2) Aptamers were synthesized and labeled with ALEXA FLUOR® 647, and binding to IL8 was quantified by Time-Resolved Fluorescence Resonance Energy Transfer (TR-FRET). Briefly, 2-fold dilutions of thermally equilibrated aptamers were made in TR-FRET Buffer (50 mM MOPS, pH 7.4, 125 mM NaCl, 5 mM KCl, 50 μM CHAPS, 0.1 mg/mL BSA, 1 mM CaCl₂ and 1 mM MgCl₂). […] of aptamer or control solution was added to 10 μL of 15 nM C-His-tagged-IL8 (Sino Biological) in a black wall half-area plate (Corning). In the same plate, 10 μl of aptamer solution was added to 10 μl of TR-FRET buffer alone to use for background subtraction. 10 μl of 15 nM anti-His-Eu (Perkin Elmer) was added to each well, the plate was covered with a plate seal and subsequently incubated in the dark for 1 hour at room temperature. The plate was read on a Biotek CYTATION™ 5 plate reader. Samples were excited at 330 nm and fluorescent values were collected at 665 nm. […] Apparent Kd values obtained for the fits are calculated as the concentration of half-maximal binding and shown in Table 10, and fit curves as FIG. 6. […] It is also possible that differences may arise due to TR-FRET being a homogenous solution binding assay, while bead binding has immobilized ligand and is non-homogenous, so bound aptamers may dissociate during analysis resulting in higher calculated Kd values.

[5] = molecular target: T1, Interleukin-8 (IL8, CXCL8), C-terminal …; assay: competition; competition TR-FRET; settings: tags: C-terminal 6xHis (Sino Biological)
Protocol: (§3) To better understand the sequence requirements and to confirm the stem structures of members of the Aptamer 3 family as determined from sequence covariation analysis from both the primary and secondary (degenerate) selections, a series of variants which included mutations and deletions to the predicted stems were synthesized and screened (Table 24). Activity of each of these variants were tested using a time resolved competition TR-FRET assay in which the labeled parent Aptamer 3 was competed with increasing concentrations of unlabeled variants for binding to IL8 (FIG. 14). Briefly, 2-fold dilutions of thermally equilibrated aptamers were made in TR-FRET Buffer (50 mM MOPS, pH 7.4, 125 mM NaCl, 5 mM KCl, 50 μM CHAPS, 0.1 mg/mL BSA, 1 mM CaCl₂, and 1 mM MgCl₂). 5 μL of aptamer or control solution was added to 5 μl mix of 10 nM C-terminal His-tagged-IL8, 60 nM ALEXA FLUOR® 647-labeled Aptamer, and 5 nM anti-His-Eu (Perkin Elmer) in a black wall low volume 384 well plate (Greiner). For control, 5 μl of 1000-fold excess of unlabeled parent aptamer or 5 μl TR-FRET buffer alone was added to the mix of ALEXA FLUOR® 647-labeled aptamer, His-IL8, and anti-His-Eu. The plate was covered with a plate seal and subsequently incubated in the dark for 1 hour at room temperature. The plate was read on a Biotek CYTATION™ 5 plate reader. […]

[6] = molecular target: T1, Interleukin-8 (IL8, CXCL8), C-terminal …; assay: cell_activity; neutrophil migration, 3 nM IL8, protein limited; settings: tags: C-terminal His (Sino Biological); stem-loop; remark: listed apart in the source
Protocol: as §1
The neutrophil migration assays described in Examples 6 and 18 were used to confirm the activity of Aptamers 8, 212, and 248. Assays were performed as described in those examples.

[7] = molecular target: T1, Interleukin-8 (IL8, CXCL8), C-terminal …; assay: TR-FRET; bead flow 16 nM; settings: tags: C-terminal 6xHis (Sino Biological); label: Alexa Fluor 647; stem-loop (Aptamer 3 family)
Protocol: as §2

[8] = molecular target: T1, Interleukin-8 (IL8, CXCL8), C-terminal …; assay: competition; competition TR-FRET; U20A; settings: tags: C-terminal 6xHis (Sino Biological)
Protocol: as §3

[9] = molecular target: T1, Interleukin-8 (IL8, CXCL8), C-terminal …; assay: TR-FRET; bead flow 20 nM; settings: tags: C-terminal 6xHis (Sino Biological); label: Alexa Fluor 647
Protocol: as §2

[10] = molecular target: T1, Interleukin-8 (IL8, CXCL8), C-terminal …; assay: TR-FRET; bead flow 21 nM; settings: tags: C-terminal 6xHis (Sino Biological); label: Alexa Fluor 647
Protocol: as §2

[11] = molecular target: T1, Interleukin-8 (IL8, CXCL8), C-terminal …; assay: competition; competition TR-FRET; U20C; settings: tags: C-terminal 6xHis (Sino Biological)
[12] = molecular target: T1, Interleukin-8 (IL8, CXCL8), C-terminal …; assay: TR-FRET; bead flow 10 nM; settings: tags: C-terminal 6xHis (Sino Biological); label: Alexa Fluor 647
Protocol: as §2

[13] = molecular target: T1, Interleukin-8 (IL8, CXCL8), C-terminal …; assay: TR-FRET; bead flow 7 nM; settings: tags: C-terminal 6xHis (Sino Biological); label: Alexa Fluor 647
Protocol: as §2

[14] = molecular target: T1, Interleukin-8 (IL8, CXCL8), C-terminal …; assay: competition; competition TR-FRET; S2 shortened; settings: tags: C-terminal 6xHis (Sino Biological)
Protocol: as §3

[15] = molecular target: T1, Interleukin-8 (IL8, CXCL8), C-terminal …; assay: TR-FRET; bead flow 11 nM; settings: tags: C-terminal 6xHis (Sino Biological); label: Alexa Fluor 647
Protocol: as §2

B1: Aptamer 272 (ssRNA)
RNA: GCGACGGUAGAUUAUGGGCAGUGUGACCGCGC
modifications: 2'-F G except 2'-OMe G at X (XCX-A-CXXU-AX-AU-UAUGGGCAXU-GU-X-ACCX-CXC); 2'-OMe A,C,U; 5' C6NH2; 3' idT
[1]
  binding signal: > 10 fold worse than Aptamer 147

B2: Aptamer 278 (ssRNA)
RNA: GCGACGGUAGAUUUCGGGUAGUGUGACCGCGC
modifications: 2'-F G except 2'-OMe G at X (XCX-A-CXXU-AX-AU-UUCGGGUAXU-GU-X-ACCX-CXC); 2'-OMe A,C,U; 5' C6NH2; 3' idT
[1]
  binding signal: > 10 fold worse than Aptamer 147

B3: Aptamer 99 (ssRNA)
RNA: UGAUGACGGUAGAUUAUGGGCAGUGUGACCGCAUCU
modifications: 2'-F G; 2'-OMe A,C,U; 5' C6NH2; 3' idT
[2]
  IC50: 4 nM

B4: Aptamer 94 (ssRNA)
RNA: UGAUGACGGUAGAUUUCGGGUAGUGUGACCGCAUCU
modifications: 2'-F G; 2'-OMe A,C,U; 5' C6NH2; 3' idT
[3]
  IC50: 3 nM

B5: Aptamer 24 (ssRNA)
RNA: UUGCCCUUUGAUCGUACCGAGGCGGGGAAGUACGAU
modifications: 2'-F G, 2'-OMe A/C/U, 5' C6NH2, 3' idT
[4]
  Kd: 9 nM

B6: Aptamer 193 (ssRNA)
RNA: GGCGACGGUAGAUUUUGGGUAGUGUGACCGCGCC
modifications: 2'-F G, 2'-OMe A/C/U, 5' C6NH2, 3' idT
[5]
  binding result: binds

B7: Aptamer 269 (ssRNA)
RNA: GGCGACGGUAGAUUAUGGGCAGUGUGACCGCGCC
modifications: 2'-F G except 2'-OMe G at X (XXCX-A-CXXU-AX-AU-UAUGGGCAGU-GU-G-ACCX-CXCC); 2'-OMe A,C,U; 5' C6NH2; 3' idT
[2]
  IC50: 3 nM

B8: Aptamer 143 (ssRNA)
RNA: GGCGACGGUAGAUUUCGGGUAGUGUGACCGCGCC
modifications: 2'-F G; 2'-OMe A,C,U; 5' C6NH2; 3' idT
[3]
  IC50: 2 nM

B9: Aptamer 197 (ssRNA)
RNA: GGCGACGGUAGAUUUUGGGCAGUGUGACCGCGCC
modifications: 2'-F G, 2'-OMe A/C/U, 5' C6NH2, 3' idT
[5]
  binding result: binds

B10: Aptamer 8 (ssRNA)
RNA: UACGGUGGGAAAUGUGAGAUGGGUUGCCGUAUUUU
modifications: 2'-F G; 2'-OMe A,C,U; 5' C6NH2; 3' idT
[6]
  IC50: 2 nM

B11: Aptamer 12 (ssRNA)
RNA: UUGGCCACAGUAGAUUUCGGUGCGUGUGACUGGGCU
modifications: 2'-F G, 2'-OMe A/C/U, 5' C6NH2, 3' idT
[7]
  Kd: 12 nM

B12: Aptamer 248 (ssRNA)
RNA: GCGGUGGGAAAUGUGAGAUGGGUUGCCGC
modifications: 2'-F G except 2'-OMe G at X (XCXXU-GGGA-AAUGU-GAGAU-GGGUU-XCCXC); 2'-OMe A,C,U; 5' C6NH2; 3' idT
[6]
  IC50: 2 nM

B13: Aptamer 59 (ssRNA)
RNA: CGGUGGGAAAUGUGAGAAGGGUUGCCG
modifications: 2'-F G, 2'-OMe A/C/U, 5' C6NH2, 3' idT
[8]
  binding result: binds

B14: Aptamer 5 (ssRNA)
RNA: UCGUGAAGGGCGAUUCUGGUGCGUGUUCCCUCGCGU
modifications: 2'-F G, 2'-OMe A/C/U, 5' C6NH2, 3' idT
[9]
  Kd: 10 nM

B15: Aptamer 13 (ssRNA)
RNA: UCGCUUGUACCUCUGAGAUGUGAGACUAAUGUAGGU
modifications: 2'-F G, 2'-OMe A/C/U, 5' C6NH2, 3' idT
[10]
  Kd: 7 nM

B16: Aptamer 54 (ssRNA)
RNA: CGGUGGGAAAUGUGAGACGGGUUGCCG
modifications: 2'-F G, 2'-OMe A/C/U, 5' C6NH2, 3' idT
[11]
  binding result: binds

B17: Aptamer 21 (ssRNA)
RNA: UUAAGCGCUGAGACGAGAGAUUAAUGCCGCUUGCCU
modifications: 2'-F G, 2'-OMe A/C/U, 5' C6NH2, 3' idT
[12]
  Kd: 7 nM

B18: Aptamer 22 (ssRNA)
RNA: UCUGAAUCGGCUGAAACGGGAGCAUUAAUGUCCGGU
modifications: 2'-F G, 2'-OMe A/C/U, 5' C6NH2, 3' idT
[13]
  Kd: 15 nM

B19: Aptamer 45 (ssRNA)
RNA: GCGACGCAGAUUACGGGUAGAGUGGCGCGC
modifications: 2'-F G, 2'-OMe A/C/U, 5' C6NH2, 3' idT
[14]
  binding signal: > 10 fold worse than Aptamer 3

B20: Aptamer 2 (ssRNA)
RNA: UAGCGGCCGAAGUUAGCGUACGUUUGCCGGGUACGU
modifications: 2'-F G, 2'-OMe A/C/U, 5' C6NH2, 3' idT
[15]
  Kd: 9 nM
